Test results reported in patent US20110318339A1.
Values belong to the binder of their own block, whether it stands above or below them.

Tests used:
[1] = target: recombinant mouse DLL4 (Cat# 1389-D4-050/CF, R&D Systems) (mouse) (UniProt Q9JI71); test: ELISA, mDLL4 coated 0.5 ng/ul, Fab 50.00 nM
[2] = target: recombinant mouse DLL4 (Cat# 1389-D4-050/CF, R&D Systems) (mouse) (UniProt Q9JI71); test: ELISA, mDLL4 coated 0.5 ng/ul, Fab 0.78 nM
[3] = target: recombinant mouse DLL4 (Cat# 1389-D4-050/CF, R&D Systems) (mouse) (UniProt Q9JI71); test: ELISA, mDLL4 coated 0.5 ng/ul, Fab […]
[4] = target: recombinant mouse DLL4 (Cat# 1389-D4-050/CF, R&D Systems) (mouse) (UniProt Q9JI71); test: ELISA, mDLL4 coated 0.5 ng/ul, Fab 25.00 nM
[5] = target: recombinant mouse DLL4 (Cat# 1389-D4-050/CF, R&D Systems) (mouse) (UniProt Q9JI71); test: ELISA, mDLL4 coated 0.5 ng/ul, Fab 100.00 nM
[6] = target: recombinant mouse DLL4 (Cat# 1389-D4-050/CF, R&D Systems) (mouse) (UniProt Q9JI71); test: ELISA, mDLL4 coated 0.5 ng/ul, Fab 6.25 nM
[7] = target: recombinant mouse DLL4 (Cat# 1389-D4-050/CF, R&D Systems) (mouse) (UniProt Q9JI71); test: ELISA, mDLL4 coated 0.5 ng/ul, Fab 12.50 nM
[8] = target: rHuman HGF R/c-MET/Fc Chimera, CF (Cat# 358-MT/CF, R&D Systems) (human) (UniProt P08581); test: Multispot ECL; Fab 51 nM; blank 335
[9] = target: rHuman IGF-1 sR, (IGF-1 sR), CF (Cat# 391-GR, R&D Systems) (human) (UniProt P08069); test: Multispot ECL; Fab 51 nM; blank 335
[10] = target: rHuman EGF R/Fc Chimera, CF (Cat# 344-ER, R&D Systems) (human) (UniProt P00533); test: Multispot ECL; Fab 51 nM; blank 335
[11] = target: rHuman ErbB2/Fc Chimera, CF (Cat# 1129-ER, R&D Systems) (human) (UniProt P04626); test: Multispot ECL; Fab 51 nM; blank 335
[12] = target: rHuman HGF R/c-MET/Fc Chimera, CF (Cat# 358-MT/CF, R&D Systems) (human) (UniProt P08581); test: Multispot ECL; Fab 17 nM; blank 143
[13] = target: rHuman IGF-1 sR, (IGF-1 sR), CF (Cat# 391-GR, R&D Systems) (human) (UniProt P08069); test: Multispot ECL; Fab 17 nM; blank 143
[14] = target: rHuman EGF R/Fc Chimera, CF (Cat# 344-ER, R&D Systems) (human) (UniProt P00533); test: Multispot ECL; Fab 17 nM; blank 143
[15] = target: rHuman ErbB2/Fc Chimera, CF (Cat# 1129-ER, R&D Systems) (human) (UniProt P04626); test: Multispot ECL; Fab 17 nM; blank 143
[16] = target: rHuman HGF R/c-MET/Fc Chimera, CF (Cat# 358-MT/CF, R&D Systems) (human) (UniProt P08581); test: Multispot ECL; Fab 6 nM; blank 191
[17] = target: rHuman IGF-1 sR, (IGF-1 sR), CF (Cat# 391-GR, R&D Systems) (human) (UniProt P08069); test: Multispot ECL; Fab 6 nM; blank 191
[18] = target: rHuman EGF R/Fc Chimera, CF (Cat# 344-ER, R&D Systems) (human) (UniProt P00533); test: Multispot ECL; Fab 6 nM; blank 191
[19] = target: rHuman ErbB2/Fc Chimera, CF (Cat# 1129-ER, R&D Systems) (human) (UniProt P04626); test: Multispot ECL; Fab 6 nM; blank 191
[20] = target: rHuman HGF R/c-MET/Fc Chimera, CF (Cat# 358-MT/CF, R&D Systems) (human) (UniProt P08581); test: Multispot ECL; Fab 154 nM; blank 447
[21] = target: rHuman IGF-1 sR, (IGF-1 sR), CF (Cat# 391-GR, R&D Systems) (human) (UniProt P08069); test: Multispot ECL; Fab 154 nM; blank 447
[22] = target: rHuman EGF R/Fc Chimera, CF (Cat# 344-ER, R&D Systems) (human) (UniProt P00533); test: Multispot ECL; Fab 154 nM; blank 447
[23] = target: rHuman ErbB2/Fc Chimera, CF (Cat# 1129-ER, R&D Systems) (human) (UniProt P04626); test: Multispot ECL; Fab 154 nM; blank 447

Chain of recombinant mouse DLL4 (Cat# 1389-D4-050/CF, R&D Systems) (mouse) (Q9JI71 28-525 limits assumed): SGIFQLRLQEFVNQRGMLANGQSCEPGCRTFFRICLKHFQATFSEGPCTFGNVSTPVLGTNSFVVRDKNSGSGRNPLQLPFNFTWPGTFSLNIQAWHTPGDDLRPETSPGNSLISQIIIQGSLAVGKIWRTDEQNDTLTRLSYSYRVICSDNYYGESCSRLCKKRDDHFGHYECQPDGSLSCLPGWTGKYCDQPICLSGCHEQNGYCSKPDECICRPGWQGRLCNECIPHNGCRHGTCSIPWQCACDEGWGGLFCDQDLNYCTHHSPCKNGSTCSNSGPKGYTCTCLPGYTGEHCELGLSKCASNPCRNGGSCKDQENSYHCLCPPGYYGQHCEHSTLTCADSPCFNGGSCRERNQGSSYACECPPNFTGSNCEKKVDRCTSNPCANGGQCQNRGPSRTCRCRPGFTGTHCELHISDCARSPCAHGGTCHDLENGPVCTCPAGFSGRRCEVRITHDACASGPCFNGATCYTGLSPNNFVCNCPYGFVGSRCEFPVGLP

ELISA absorbance at 450 nm [1]: 0.331 A450
ELISA absorbance at 450 nm [2]: 0.13 A450
ELISA absorbance at 450 nm [3]: 0.131 A450
ELISA absorbance at 450 nm [4]: 0.232 A450
ELISA absorbance at 450 nm [5]: 0.457 A450
ELISA absorbance at 450 nm [6]: 0.148 A450
ELISA absorbance at 450 nm [7]: 0.186 A450
B1: Fab VH5-51_IGHD5-18*01>3_IGHJ4*01 G100K/G104T G24T/S28R/G35V (H:KT TRV) & V3-4_IGLJ1*01 M94R/S96M (L:RM) (Fab, V domains shown)
VH: EVQLVQSGAEVKKPGESLKISCKTSGYRFTSYWIVWVRQMPGKGLEWMGIIYPGDSDTRYSPSFQGQVTISADKSISTAYLQWSSLKASDTAMYYCARRKYSYTYDYFDYWGQGTLVTVSS
VL: QTVVTQEPSFSVSPGGTVTLTCGLSSGSVSTSYYPSWYQQTPGQAPRTLIYSTNTRSSGVPDRFSGSILGNKAALTITGAQADDESDYYCVLYRGMGISYVFGTGTKVTVL

ECL signal [8]: 1040
ECL signal [9]: 1050
ECL signal [10]: 816
ECL signal [11]: 1250
ECL signal [12]: 914
ECL signal [13]: 872
ECL signal [14]: 805
ECL signal [15]: 1030
ECL signal [16]: 831
ECL signal [17]: 854
ECL signal [18]: 742
ECL signal [19]: 873
ECL signal [20]: 1520
ECL signal [21]: 1400
ECL signal [22]: 1400
ECL signal [23]: 1590
B2: Fab VH5-51_IGHD5-18*01>3_IGHJ4*01 & V3-4_IGLJ1*01 (Fab, V domains shown)
VH: EVQLVQSGAEVKKPGESLKISCKGSGYSFTSYWIGWVRQMPGKGLEWMGIIYPGDSDTRYSPSFQGQVTISADKSISTAYLQWSSLKASDTAMYYCARRGYSYGYDYFDYWGQGTLVTVSS
VL: QTVVTQEPSFSVSPGGTVTLTCGLSSGSVSTSYYPSWYQQTPGQAPRTLIYSTNTRSSGVPDRFSGSILGNKAALTITGAQADDESDYYCVLYMGSGISYVFGTGTKVTVL
